From US20060040855A1 (published 2006)
Residue numbers refer to the chain shown, from its start.

B1: dgα5-β8 (dg-αQ5C/hCGβR8C) (ligand)
chain 1: not shown
chain 2: SKEPLRPCCRPINATLAVEKEGCPVCITVNTTICAGYCPTMTRVLQGVLPALPQVVCNYRDVRFESIRLPGCPRGVNPVVSYAVALSCQCALCRRSTTDCGGPKDHPLTCDDPRFQDSSSSKAPPPSLPSPSRLPGPSDTPILPQ
B2: dgα76-β44 (dg-αV76C/hCGβV44C) (ligand)
chain 1: not shown
chain 2: B1 chain 2 with C8R, V44C
B3: dgα27-β44 (dg-αQ27C/hCGβV44C) (ligand)
chain 1: not shown
chain 2: B1 chain 2 with C8R, V44C

target: rat LH receptor (rat, UniProt P16235); experiment: cell-based or functional assay

Binder	Efficacy, cyclic AMP accumulation [%]
B1	36
B2	34
B3	14
